Results on 15 sequences are retold here after the DeepSol protein solubility set.

The data set is described as follows: soluble on expression in E. coli; label from the status in PepcDB or PDB records.
As for “MLDRFATKQTQEKLKIGVVGVFAIGCLFPLLSDFKRSYPHIDLHISTHNNRVDPAAEGLDYTIRYGGGAWHDTDAQYLCSALMSPLCSPTLASQIQTPADILKFPLLRSYRRDEWALWMQTVGEAPPSPTHNVMVFDSAVTMLEAAQAGMGVAIAPVRMFTHLLSSERIVQPFLTQIDLGSFWITRLQSRPETPAMREFSRWLTGVLHKTSGSHHHHHH”, the “soluble on expression in E. coli” value is “soluble”.
The result for “MLEEVERWLDARSWPAADRPVQHLLSAKHATGQSVSVVLPALDEEATVGDIVSVIRRELVLGVPLVDEIVVVDSGSSDRTSEVAAAAGARVVHRDAILPRIPAVPGKGEVLWRSLLVTGGDIVCFVDADLREFSADFVSGIVGPLLTDPDVHLVKAMYDRPLAGAAGQGGRVTELMARPLLNMHWPQLAGFVQPLGGEYAARRSLLERLPFPVGYGVELGMLVDALHLVGLDALAQVDVGVRVHRHQDGRALGRMAAAIYRTAQLRLARGHLVRPALTQFERGVDGFEPRTYAVDTEERPPMTEIAEYAARKVALEHHHHHH” reads “soluble”; that for “MLEHRRLFPGRRYDSRVYRSCASPMPYLLEEKLRGTAMEQRTPPSEAVISGPATPGLAEGKISAYLLDLATRTLRPPTFPPLSDSTVTAKDTVCLVGGPELAWLAVGMTPFRNITSVTLQQGELKSCSLQESMEWMRLAHLLKAAPEQVNGDGGEALALQRRLAAVRTDLVLLDLLANGHPTTGLPQVLATPFADVLDAYVDMEKEQHSAAAPSAPQNVGRLRSVLFDEEPVTGVHLEQPSLRLRLVSLQQLLVRIVRALSGAHVGLPAGNRPTPHAATLLEMTLQTHGLLCGGGVPSQAWSPTPDPADASSGGSSTAALNGTVLLDKFPRLSAEMLLQHVTYLLSNEAKQRTANAADGAGEGSDSIYLSPQRTRHFGLTGVETLLLSATQAEQVNQVLPLYVRGHTLPDEVASDITQTRNIHEAVRKTQRVLSRVLQQASQELASQSGSGTAAVDDAGHNGPHPALAHLPSHLFVRTAGARGPPPGWEYYGVHLGIKAEAMNVRYNLNASDTATLHLIDSSGSSNSGGVTATAGSEVGAESTRSGMPG”, “not soluble”.
Consider “MLEIRHLKTLHALREADSLVDAAERLHLTQSALSHQFKELEERMGMPLFVRKTKPVRFTSAGLRLLQLADSMLPQLRSAERDIARLAGGTAGRLHMAIECHSCFQWLMPTIDQFRDAWPEVELDLSSGFSFAPLPALARGDLDLVVTSDPLELPGITYVPLFTYEAMLAVANQHALASKPYIVPEDLLPETLITYPVERDRLDIFTRFLEPADIEPAQVRTSELTVMMMQLVASGRGVCGMPHWALHEYSSRGYVKAKRLGEKGLFATLYAGIRADMLDAPYMRDFLLTAKDTSFSTLDGVSVVR”, for which the “soluble on expression in E. coli” value was “not soluble”.
In the case of “MLELDTRQIRMGQRAADKAEALRLLGAALVADGLAAPGYAEGLKAREAQGSTYLGQGIAIPHGTPDTRELVFSTGVRLLQFPEGVDWGDGQQVYLAIGIAAKSDEHLQLLQLLTRALGEADLGPALSAAASAEEVLGLLQGAPQELALDAQLVGLGQNAEDLDELAWLGARLLKKAGCVENGFAAVLQQTEPLPLGDGLCWLHSEQLVKRPGLAFVTPAQPLQHQGQLVTGLFCLASLGEAHQALLERLCDLLLEGRGAELVRATSSRSVLAALGGELPPDWPSARAVLANPHGLHARPAQALAQLAKGFAGEIRVRLADSEAAPVSAKSLSKLLALGARRGQTLEFSAEPAIAEDALPALLAAVREGLGEEVEALAEEALPDAVGEAEEDARPAPLRAGERLQAIAASPGIASGPAHVQVAQRFEFQPRGESPAHERERLLRAKRAVDEEIVGLVERSTVKAIREIFVTHREMLDDPELAEQVQLRLNRGESAEAAWSRVVEDSAAQQEALHDALLAERAADLRDLGRRVLARLCGVEAPREPEQPYILVMDEVGPSDVARLDAQRVAGILTARGGATSHSAIIARALGIPALVGAGAAVLGLEPGTALLLDGEHGWLQVAPSTEQLQQAAAERDARQQRQARADAQRLEPARTRDGHAVEVCANLGDTAGAARAVELGAEGVGLLRTEFVFMNNARAPDLATQEAEYRRVLDALDGRPLVARTLDVGGDKPLPYWPIPHEENPYLGLRGIRLTLQRPQILETQLRALFRAAGERPLRVMFPMVGSLDEWRQARDLALRLREEIPLADLQLGIMVEVPSAALLAPVLAREVDFFSVGTNDLTQYTLAIDRGHPSLSAQADGLHPAVLQLIDMTVRAAHAEGKWVGVCGELAADPLALPLLVGLGVDELSVSARSIALVKAGVRELQLVAARGLARKALGLASAAEVRA”, the “soluble on expression in E. coli” value is reported as “not soluble”.
In the case of “MLEQPYLDLAKKVLDEGHFKPDITHTGTYSIFGHQMRFDLSKGFPLLTTKKVPFGLIKSELLWFLHGDTNIRFLLQHRNHIWDEWAFEKWVKSDEYHGPDMTDFGHRSQKDPEFAAVYHEEMAKFDDRVLHDDAFAAKYGDLGLVYGSQWRAWHTSKGDTIDQLGDVIEQIKTHPYSRRLIVSAWNPEDVPTMALPPCHTLYQFYVNDGKLSLQLYQRSADIFLGVPFNIASYALLTHLVAHECGLEVGEFIHTFGDAHLYVNHLDQIKEQLSRTPRPAPTLQLNPDKHDIFDFDMKDIKLLNYDPYPAIKAPVAV”, the “soluble on expression in E. coli” value is “soluble”.
For “MLERRDKEITDLKRRVANMVVVGKISHVDHKNARYRVKTGNLVSDWIPDTQARAGKTRSYEGRDVGEQVVVVSSSGDLSQGVIVGSIHTDANQAADKGNLHKTLYPDGTTIEYDDEQNSYALHLTSGGKFSLTISDGVSIKGDGKKLELQAAEGIKIISQGDLSLSAEKNIALKAGGSVSLHSDDGIALHSSEGVSIHSSDLKHNGTNIGNSHVHGGVSPGGSMTGGPN”, the “soluble on expression in E. coli” value was “soluble”.
As for “MLERTQVFVDTSYLLASFYNSWEIGARAQLEIDLPEVVATLGNMIHNQLGQPVHRQFWYDGIPESGPHRYQRALRTCDGVQLRAGQLIEWGERRTQKAVDTRLVADMVLAGVRREFTDIVLVSGDADMIPGVQEAVNAGVRVHLYGFGWDSMSSALRHACDSTTILDPREDFSDCMQLEILEGPLPPVVRNPDEEGEEGEFPAAAAEATAAAAEAAADTTVTTDATDNEATPPVPTPEQVAEKSQREAPAAPIPCPQRPGEPALSEEDCMAEVPAKMPKPVAPKPGAHLPAETPAPAPTATPAPTPSSRTVRVTSTVEESLEVTVSNSAEPNVEAEEADTPATPRPAPNPSMMAPRRKLRSRYVPLPNEVWASAGYQTPFDVGQQYALWWFDNAATPEQRDSAHLLSGGGLPPEIDRPLLQFACETLHEYTLTEAQRVGLRDGFHSGIRGVLINNQNS”, the “soluble on expression in E. coli” value is reported as “not soluble”.
With “MLFFETDATLALWGEAVLAATWAEFPQLARNQLALTWIVYDDPVPVNTGGAIAPQSFWSLPIRGFHYRGDEAIYPASVVKLFYLVAALEWLQQGMIQPSAELDRALRDMIVDSSNDATGYIVDLLSGTTSGPELGDGPFKTWQFQRNIVNRYYQSLMWPELQPINVNQKTWGDGPYGRERAFYGPEFENRNKLTTNATARLLHAIAGGVAVSPSASQRMLNLLNRPFDPRSLAEDPENQVTGFLGQDLPQGSQLWSKAGWMSRVRHDAAYLEIPGLPPHLLVAFTEGKEHANNEAILPFIAQQVRQQLQPALEHHHHHH”, the “soluble on expression in E. coli” value was “soluble”.
Consider “MLFHDIHDRAVKALPQILDRLIADGYQFAGWNGRDFSVARAPSATAAATVTTGYAKSWAIVIGIDDYARWPKLEYAANDAQAIANTLTGPLGFPSSQVIVLKNAEATRNNILAAFHDRLGDGRAQTNDRVFVFFAGHGATRRLASGRDLGYIIPVDSDPEHLANDAIAMSDLQNIAESLQAKHVLFVMDACYSGLGLTRGGPSSSAYLRENARRIARQMLTAGGADQQVADSGPNGHSVFTWVVLQALAGKGDLNGDGLITGTELAAYVAPAVSAVSAQTPAFGSLPGSQGGEFVFQVPSGEEFLTADTAQLSAAAIALNGRVDAVRPAAVSLEHHHHHH”, for which the “soluble on expression in E. coli” value is listed as “soluble”.
Consider “MLFHRKIKVPDCVFKAEKRVLHVSDTPVSFYRTFDEILNLIKPDIIIHTGDLADDIKLERKPWLKKEYENALIKFKNIIRGRIVYLVPGNEDDKEIIREILGRDVILVNPGTIIEIYGRTFALGHKPEDVKGKEAEFKLYGHDPKSLFPFNGIHAIHIILFPEWKVVKIRYPSWVNYDRGYRIFRGLLEHHHHHH”, for which the “soluble on expression in E. coli” value was “not soluble”.
With “MLFISSDNQKEKRGMAGNKKINRREEILQALAEMLESNEGASRITTAKLAKQVGVSEAALYRHFPSKARMFEGLIEFIEESLMSRINRIFDEEKDTLNRIRLVMQLLLAFAERNPGLTRILSGHALMFENERLRDRINQLFERIETSLRQILRERKLREGKSFPVDENILAAQLLGQVEGSLNRFVRSDFKYLPTANFDEYWALLSAQIK”, the “soluble on expression in E. coli” value is reported as “soluble”.
The same measure for “MLFLDSVAMKEKPEGREEYPFSVPAMRHLERLEFKTPITFFAGNNGSGKSTLLEGLAAGMTAYAIGNHGDVKGDLYLQHAETVAKAFYFARKKYPKIRMFLRAEDVLGYIRRQNENALDDFRWEREKALKKGEDFPEETPEIFRGIVRNNSLDRRSHGEGFLDIMHRRLHGAGLYFLDEPESPLSPQKQLELAAIIRQAADSGGQLIIATHSPVLLAIPEATIYYFDEDGITERLYDELENIAFLRRFLDRPSKYLDDLEHHHHHH”: “soluble”.
In the case of “MLIDSFEDLDGVIQEIKFRLTRAPMEMGRERECCVLSTSPGCRRAASFPFVGDSSIIQASSLKVRSKSESEALNKMRLTQMNLETVRKRLSESTIKEKDEGSDYQSHSSSSSECEVDDLELFCAGPLELKEEEKLRKSVRFADDCGHELYMVRVATEPSNCPPKLSPSVLRRYRGESFEEEEMTTREPAPVWNLMFKQPAADYVRFRENMETNKVSLENVILNNEAYKVMGTIKVGNIAFEKSVFVRYTMNGWISYMDKAAIYQPSTSKIQDTFKFDLDLPSSVEKIHQIEFCICFKANGTEYWDSNSGTNYVLHCEQQQHPAVPQQRRASLFGSSKYLDRDDAYKLDYNDWGKFASWKALSTDGPYW”, the “soluble on expression in E. coli” value is given as “soluble”.
The result for “MLIHIGIDDTDSPNGMCTTYIGAILYREISKIAEPLDFPRLIRLNPNVPYKTRGNGAVAMSFKIDEEKIKEVKTLVIRYVRELADIDHENTNPGIVFLIGEVPKELEEFSLRALREHVTIEEAEHVARKVNAEVYKFKLGRGIIGGLAAIGYPLEKFTYELLAYRKREYWGTPRRVIKESVFYADKWSYPFTYDNVDPYKRTVLITPHGKDPVLVGIRGIDVGKILQVFEMIKIEEPIEFFQVYKTNQNTDDHLVVKKIKDVKPYDNVVIRGKVAGKYWEKGRHVFFELEDETGKIRVAAFEPTKKFRNYVRKLLPGDEVIIAGGVKEFEGVLTVNLEKFYPVNLVPKVEYEKPRCPKCGGTMKSKGDYLKCKKCGYKMEKILTPVKRPRDLKKKIYEVPPDARKHISRPLVLPGGEDKILEALLEHHHHHH” reads “soluble”.
